# Data from patent US20250282868A1 (ITEOS BELGIUM, published 2025).
# T1: human TREM2 (human, UniProt Q9NZC2 19-230)
# T1 construct: on THP-1 WT cells and M2a-like macrophages (endogenous) and on CHO or HEK293T cells overexpressing human TREM2 with DAP12; also called hTREM2
# T1 sequence: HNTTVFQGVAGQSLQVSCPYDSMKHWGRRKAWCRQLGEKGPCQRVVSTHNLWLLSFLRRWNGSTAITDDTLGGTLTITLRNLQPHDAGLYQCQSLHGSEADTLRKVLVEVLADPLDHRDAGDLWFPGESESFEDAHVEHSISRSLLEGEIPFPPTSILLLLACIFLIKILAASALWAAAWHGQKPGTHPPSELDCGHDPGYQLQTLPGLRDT
# T2: mouse TREM2 (mouse, UniProt Q99NH8 19-227)
# T2 construct: whole, on cells
# T2 sequence (looked up): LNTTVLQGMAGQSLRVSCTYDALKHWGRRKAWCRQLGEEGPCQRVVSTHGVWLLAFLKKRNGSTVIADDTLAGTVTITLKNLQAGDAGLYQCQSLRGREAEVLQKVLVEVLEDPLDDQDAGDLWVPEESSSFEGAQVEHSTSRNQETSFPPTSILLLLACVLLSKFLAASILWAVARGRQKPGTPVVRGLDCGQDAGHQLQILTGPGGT
# T3: cynomolgus TREM2 (cynomolgus, UniProt A0A2K5UY34 49-260)
# T3 construct: also called cynoTREM2; cTREM2
# T3 sequence: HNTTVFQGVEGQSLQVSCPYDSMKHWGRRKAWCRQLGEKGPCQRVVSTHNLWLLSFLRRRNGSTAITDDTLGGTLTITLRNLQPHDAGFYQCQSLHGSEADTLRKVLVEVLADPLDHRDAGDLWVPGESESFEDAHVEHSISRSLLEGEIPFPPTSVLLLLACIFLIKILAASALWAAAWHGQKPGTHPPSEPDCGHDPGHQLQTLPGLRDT
# Assays:
# [1] = target: T1, human TREM2; test: flow cytometry, M2a-like macrophages
# [2] = target: T2, mouse TREM2; test: MFI on CT26 cells over-expressing mouse TREM2 and DAP12
# [3] = target: T1, human TREM2; test: flow cytometry, competition with LDL-Alexafluor-488 on CHO cells overexpressing human TREM2/DAP12; only 1 value generated
# Experimental: (§1) Exemplary anti-TREM2 antibodies were tested in order to characterize their ability to enter in competition with TREM2 ligand, LDL, on CHO overexpressing human TREM2/DAP12. Antibodies (dose response curves from 66.65 nM to 0.07 nM) were incubated for 30 min with cells in a soluble fashion, followed by an incubation with LDL coupled with Alexafluor-488 (at 1 μg/mL final) for 30 min. Finally, after 2 washes, cells were acquired on flow cytometer. The median MFI of Alexafluor-488 was used to plot the graphs. Benchmark antibody MOR044746 was used as positive control.
# [4] = target: T1, human TREM2; test: cell-based or functional assay
# [5] = target: T1, human TREM2; test: flow cytometry, THP-1 WT cells, 10 ug/ml
# [6] = target: T2, mouse TREM2; test: MFI on CT26 cells over-expressing mouse TREM2 and DAP12 vs CT26 empty vector
# [7] = target: T1, human TREM2; test: cell-based or functional assay; remark: listed apart in the source
# [8] = target: T3, cynomolgus TREM2; test: MFI on CHO cells over-expressing cynoTREM2-DAP12 vs CHO empty vector
# Experimental: (§2) Cross-reactivity of anti-TREM2 antibodies to cynomolgus TREM2 (cynoTREM2) was assessed using CHO over-expressing cynoTREM2-DAP12 (Table 22). Benchmark antibodies, AB52 and PN-37012, were examined for comparison.
# [9] = target: T3, cynomolgus TREM2; test: MFI on CHO cells over-expressing cynoTREM2-DAP12
# Experimental: as §2
# [10] = target: T1, human TREM2; test: flow cytometry, THP-1 WT vs THP-1 TREM2 KO cells, 10 ug/ml
# [11] = target: T1, human TREM2; test: flow cytometry, M2a-like macrophages, dose-response
# [12] = target: T1, human TREM2; test: flow cytometry, competition with LDL-Alexafluor-488 on CHO cells overexpressing human TREM2/DAP12; positive control
# Experimental: as §1
Fold over isotype [1] [fold],Binding to CT26-TREM2 MFI [2] [MFI],IC50 [3] [nM],Stabilization ratio (Mean of 2 replicates) [4] [ratio],Fold over isotype control THP1 WT [5] [fold],MFI Fold change (CT26-TREM2 over CT26-EV) [6] [fold],Fold over isotype control at 66 nM [7] [fold],MFI Fold change (CHO-cTREM2 over CHO-EV) [8] [fold],Binding to CHO-cTREM2 MFI [9] [MFI],MFI Fold change (THP-1 WT over THP-1 TREM2 KO) [10] [fold],Kd [11] [nM],IC50 [12] [nM],Binder
5.8,1390,0.28,0.39,5.5,3.9,0.757,233,10200,5.8,1.06,,"EOS006175 (antibody, V domains shown) VH: QVQLQESGPGLVKPSGTLSLTCAVSGGSISSSNWWSWVRQPPGKGLEWIGEIYHSGSTNYNPSLKSRVTISVDKSKNQFSLKLSSVTAADTAVYYCARDTKYWGGMDVWGQGTTVTVSS VL: DIQMTQSPSSLSASVGDRVTITCQASQDISNYLNWYQQKPGKAPKLLIYDASNLATGVPSRFSGSGSGTDFTFTISSLQPEDIATYYCQQYVEAPTFGGGTKVEIK"
,,,,,,,,,,,0.395,"MOR044746 (antibody, V domains shown, benchmark anti-TREM2 antibody from WO2020079580) VH: QVQLQQSGPGLVKPSQTLSLTCAISGDSVSSSSAAWNWIRQSPSRGLEWLGHIGYRSKWYNEYAVSVKSRITINPDTSKNQFSLQLNSVTPEDTAVYYCARGMYGSVPYKEGYYFDIWGQGTLVTVSS VL: DIQMTQSPSSLSASVGDRVTITCRASQGISSDLNWYQQKPGKAPKLLIYAASNLQSGVPSRFSGSGSGTDFTLTISSLQPEDFATYYCQQYTDESMTFGQGTKVEIK"
